This is an account of results in US20210261663A1 (JIANGSU HENGRUI MEDICINE, published 2021).

This test deals with T1, human TIM-3 full-length, overexpressed on CHO-S cells (human, UniProt Q8TDQ0 22-301).
T1 construct: also called HAVCR2; Tim-3 overexpressing CHO-S cells
Put plainly: cell-based ELISA on fixed CHO-S cells overexpressing full-length human TIM-3, HRP secondary antibody, OD450. For orientation: In an ELISA, binding on a coated surface is turned into a signal by an enzyme label.

B1: ABTim-3 (antibody, V domains shown)
VH: QVQLQQPGAELVKPGASVKMSCKASGYTFTSYNMHWIKQTPGQGLEWIGDIYPGNGDTSYNQKFKGKATLTADKSSSTVYMQLSSLTSEDSAVYYCARVGGAFPMDYWGQGTSVTVSS
VL: DIVLTQSPASLAVSLGQRATISCRASESVEYYGTSLMQWYQQKPGQPPKLLIYAASNVESGVPARFSGSGSGTDFSLNIHPVEEDDIAIYFCQQSRKDPSTFGGGTKLEIK
Broadly, the EC50 (read off the curve) is the concentration at which the effect is half-maximal. Higher therefore signals a need for much substance. With B1, the “EC50 (read off the curve)” value is roughly 0.1 nM.
